Measured values published in patent US20180125988A1, “TARGETED XTEN CONJUGATE COMPOSITIONS AND METHODS OF MAKING SAME” (AMUNIX OPERATING INC., priority 2014, published 2018).

B1: XTEN432-3xMMAE (protein)
chain: SAGSPTAEAAGCGTAEAAGTSESATPESGPGSEPATSGSETPGTSESATPESGPGTSTEPSEGSAPGTSESATPESGPGSPAGSPTSTEEGSPAGSPTSTEEGSPAGSPTSTEEGTSESATPESGPGTSTEPSEGSAPGTSESATPESGPGSEPATSGSETPGTSESATPESGPGSEPATSGSETPGTSESATPESGPGTSTEPSEGSAPTAEAAGCGTAEAAGSPAGSPTSTEEGTSESATPESGPGSEPATSGSETPGTSESATPESGPGSPAGSPTSTEEGSPAGSPTSTEEGTSTEPSEGSAPGTSESATPESGPGTSESATPESGPGTSESATPESGPGSEPATSGSETPGSEPATSGSETPGSPAGSPTSTEEGTSTEPSEGSAPGTSTEPSEGSAPGSEPATSGSETPTAEAAGCGTAEAASASR
B2: XTEN432-3xDM1 (protein)
chain: B1 chain

Biological target: HER2 (ErbB2, HER2/neu receptor) on HER2 expressing tumor cell lines (human (human tumor cell lines)) (UniProt P04626)
Assay: cell-based or functional assay

Binder | IC50, CellTiter-Glo cytotoxicity, BT474 cells [nM] | IC50, CellTiter-Glo cytotoxicity, HCC1954 cells [nM] | IC50, CellTiter-Glo cytotoxicity, NCI-N87 cells [nM] | IC50, CellTiter-Glo cytotoxicity, SK-BR-3 cells [nM] | IC50, CellTiter-Glo cytotoxicity, SK-OV-3 cells [nM]
B1 | > 300 | > 300 | > 1000 | > 300 | > 700
B2 | > 1000 | > 360 | > 1000 | > 1000 | > 700
